Experimental data: US20190233542A1

Legend:
[1] = target: human PCSK9-mFc-biotin (human) (UniProt Q8NBP7); assay: competitive ELISA, blocking of PCSK9 binding to LDL-R
[2] = target: human PCSK9 (Proprotein Convertase Subtilisin/Kexin type 9) (human) (UniProt Q8NBP7); assay: cell-based or functional assay
[3] = target: human PCSK9 (Proprotein Convertase Subtilisin/Kexin type 9) (human) (UniProt Q8NBP7); assay: binding ELISA on human PCSK9

## Repatha (antibody)
[1]
  IC50: 2.21 nM
[2]
  IC50, LDL-uptake assay in HepG2: 77.6 nM
[3]
  EC50: 0.044 nM
